From patent US20100129369A1 (Eli Lilly, published 2010)

What was measured:
RON-ECD-Fc [1] = target: T1, RON-ECD-Fc (human, UniProt Q04912 25-957); assay: ELISA, coated ECD-Fc, antibody 16666.667 ng/mL
T1 construct: extracellular domain; Bought reagent; not shown: Fc part of the bought fusion
T1 sequence (looked up): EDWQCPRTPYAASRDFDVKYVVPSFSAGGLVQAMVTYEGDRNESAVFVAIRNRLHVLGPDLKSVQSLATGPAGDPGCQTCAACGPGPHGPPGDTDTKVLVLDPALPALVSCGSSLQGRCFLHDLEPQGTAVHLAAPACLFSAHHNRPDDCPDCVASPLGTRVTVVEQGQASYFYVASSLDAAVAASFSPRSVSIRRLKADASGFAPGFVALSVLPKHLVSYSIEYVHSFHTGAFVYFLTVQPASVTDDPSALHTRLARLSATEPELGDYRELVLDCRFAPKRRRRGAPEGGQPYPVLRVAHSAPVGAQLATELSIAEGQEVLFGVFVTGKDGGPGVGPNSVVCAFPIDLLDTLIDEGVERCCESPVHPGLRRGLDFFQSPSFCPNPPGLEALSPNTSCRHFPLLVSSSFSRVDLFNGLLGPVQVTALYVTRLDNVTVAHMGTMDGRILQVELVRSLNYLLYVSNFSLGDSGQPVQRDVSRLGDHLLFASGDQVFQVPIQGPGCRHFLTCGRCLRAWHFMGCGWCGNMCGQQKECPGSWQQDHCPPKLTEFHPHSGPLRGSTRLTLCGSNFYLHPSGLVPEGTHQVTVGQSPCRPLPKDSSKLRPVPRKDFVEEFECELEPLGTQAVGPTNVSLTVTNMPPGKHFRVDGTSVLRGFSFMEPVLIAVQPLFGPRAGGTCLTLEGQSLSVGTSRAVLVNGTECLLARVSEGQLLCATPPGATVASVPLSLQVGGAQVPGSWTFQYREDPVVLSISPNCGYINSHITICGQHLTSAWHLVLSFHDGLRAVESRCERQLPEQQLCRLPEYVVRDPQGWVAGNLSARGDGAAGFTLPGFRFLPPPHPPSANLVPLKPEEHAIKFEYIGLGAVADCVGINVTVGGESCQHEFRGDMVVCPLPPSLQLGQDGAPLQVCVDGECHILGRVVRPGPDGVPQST

Human c-Met-Flis-Fc ECD [2] = target: T2, Human c-Met-Flis-Fc ECD (human); assay: ELISA, coated ECD-Fc, antibody 16666.667 ng/mL
T2 construct: also called human c-Met extracellular domain (ECD)-Fc-Flis fusion; Human cMet-ECD-Fc-Flis

PlexinA2-ECD-Fc = target: T3, PlexinA2-ECD-Fc (human, UniProt O75051 35-1237); assay: ELISA, coated ECD-Fc, antibody 100000.000 ng/mL
T3 construct: extracellular domain; Bought reagent
T3 sequence (looked up): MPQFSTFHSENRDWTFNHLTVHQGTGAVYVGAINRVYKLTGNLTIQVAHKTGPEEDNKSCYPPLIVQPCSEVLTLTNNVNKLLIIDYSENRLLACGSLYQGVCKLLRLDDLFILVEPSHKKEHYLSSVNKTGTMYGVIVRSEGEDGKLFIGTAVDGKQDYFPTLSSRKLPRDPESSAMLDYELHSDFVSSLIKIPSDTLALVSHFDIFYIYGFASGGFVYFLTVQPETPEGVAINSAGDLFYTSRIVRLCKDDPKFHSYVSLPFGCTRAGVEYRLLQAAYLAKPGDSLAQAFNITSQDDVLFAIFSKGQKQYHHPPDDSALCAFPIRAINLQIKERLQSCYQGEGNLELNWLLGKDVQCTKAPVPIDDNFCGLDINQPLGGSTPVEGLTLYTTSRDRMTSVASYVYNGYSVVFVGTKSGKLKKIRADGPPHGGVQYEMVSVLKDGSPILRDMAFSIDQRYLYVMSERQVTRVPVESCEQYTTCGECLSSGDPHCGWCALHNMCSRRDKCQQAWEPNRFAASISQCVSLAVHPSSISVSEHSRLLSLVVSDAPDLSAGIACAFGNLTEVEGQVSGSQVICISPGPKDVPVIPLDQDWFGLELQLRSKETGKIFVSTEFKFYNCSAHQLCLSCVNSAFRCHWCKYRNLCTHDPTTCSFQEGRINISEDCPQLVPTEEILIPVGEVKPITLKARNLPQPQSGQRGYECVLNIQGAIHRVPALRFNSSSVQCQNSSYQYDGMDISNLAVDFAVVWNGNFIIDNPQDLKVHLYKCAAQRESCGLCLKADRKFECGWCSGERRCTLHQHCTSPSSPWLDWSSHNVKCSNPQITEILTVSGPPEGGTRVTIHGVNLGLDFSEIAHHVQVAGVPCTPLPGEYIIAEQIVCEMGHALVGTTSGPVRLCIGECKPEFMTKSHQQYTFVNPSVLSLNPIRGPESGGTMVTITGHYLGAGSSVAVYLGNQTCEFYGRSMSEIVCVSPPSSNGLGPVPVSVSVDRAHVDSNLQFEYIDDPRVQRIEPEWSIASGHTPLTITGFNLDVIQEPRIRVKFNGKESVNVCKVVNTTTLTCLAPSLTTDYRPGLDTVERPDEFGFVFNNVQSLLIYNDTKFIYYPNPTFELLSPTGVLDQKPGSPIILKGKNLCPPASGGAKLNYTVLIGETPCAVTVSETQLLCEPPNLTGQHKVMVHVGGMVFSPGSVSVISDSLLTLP
Experimental: (§1) Wells of 96-well EIA/RIA high binding plates (Costar, #2592) are coated with 100 μL of 1 μg/mL human c-Met extracellular domain (ECD)-Fc-Flis fusion (SEQ ID NO:72), RON-ECD-Fc (R&D Systems, #1947-MS), or PlexinA2-ECD-Fc (Abnova, Taipei, Taiwan #H00005362-P01) in coating buffer (BioFX Labs, # COAT-1000-01) overnight at 4° C. […] After the plates are washed, 100 μL/well of substrate solution (BioFx, #TMBW-1000-01) are added and the plates are incubated for 10 min. at room temperature. 100 μL/well of stop solution (BioFx, # LSTP-1000-01) are added to stop the reaction. The colorimetric signals are developed and read at 450 nm using a SpectraMax 190 plate reader (Molecular Devices, Sunnyvale, Calif.). c-Met antibody binding to c-Met, RON and PlexinA2 ECDs is proportional to color signal production.

RON-ECD-Fc [3] = target: T1, RON-ECD-Fc; assay: ELISA, coated ECD-Fc, antibody 100000.000 ng/mL
Experimental: as §1

Human c-Met-Flis-Fc ECD [4] = target: T2, Human c-Met-Flis-Fc ECD; assay: ELISA, coated ECD-Fc, antibody 100000.000 ng/mL
Experimental: as §1

RON-ECD-Fc [5] = target: T1, RON-ECD-Fc; assay: ELISA, coated ECD-Fc, antibody 0.002 ng/mL
Experimental: as §1

Human c-Met-Flis-Fc ECD [6] = target: T2, Human c-Met-Flis-Fc ECD; assay: ELISA, coated ECD-Fc, antibody 0.002 ng/mL
Experimental: as §1

T2 sequence (chain, as listed by the source limits assumed): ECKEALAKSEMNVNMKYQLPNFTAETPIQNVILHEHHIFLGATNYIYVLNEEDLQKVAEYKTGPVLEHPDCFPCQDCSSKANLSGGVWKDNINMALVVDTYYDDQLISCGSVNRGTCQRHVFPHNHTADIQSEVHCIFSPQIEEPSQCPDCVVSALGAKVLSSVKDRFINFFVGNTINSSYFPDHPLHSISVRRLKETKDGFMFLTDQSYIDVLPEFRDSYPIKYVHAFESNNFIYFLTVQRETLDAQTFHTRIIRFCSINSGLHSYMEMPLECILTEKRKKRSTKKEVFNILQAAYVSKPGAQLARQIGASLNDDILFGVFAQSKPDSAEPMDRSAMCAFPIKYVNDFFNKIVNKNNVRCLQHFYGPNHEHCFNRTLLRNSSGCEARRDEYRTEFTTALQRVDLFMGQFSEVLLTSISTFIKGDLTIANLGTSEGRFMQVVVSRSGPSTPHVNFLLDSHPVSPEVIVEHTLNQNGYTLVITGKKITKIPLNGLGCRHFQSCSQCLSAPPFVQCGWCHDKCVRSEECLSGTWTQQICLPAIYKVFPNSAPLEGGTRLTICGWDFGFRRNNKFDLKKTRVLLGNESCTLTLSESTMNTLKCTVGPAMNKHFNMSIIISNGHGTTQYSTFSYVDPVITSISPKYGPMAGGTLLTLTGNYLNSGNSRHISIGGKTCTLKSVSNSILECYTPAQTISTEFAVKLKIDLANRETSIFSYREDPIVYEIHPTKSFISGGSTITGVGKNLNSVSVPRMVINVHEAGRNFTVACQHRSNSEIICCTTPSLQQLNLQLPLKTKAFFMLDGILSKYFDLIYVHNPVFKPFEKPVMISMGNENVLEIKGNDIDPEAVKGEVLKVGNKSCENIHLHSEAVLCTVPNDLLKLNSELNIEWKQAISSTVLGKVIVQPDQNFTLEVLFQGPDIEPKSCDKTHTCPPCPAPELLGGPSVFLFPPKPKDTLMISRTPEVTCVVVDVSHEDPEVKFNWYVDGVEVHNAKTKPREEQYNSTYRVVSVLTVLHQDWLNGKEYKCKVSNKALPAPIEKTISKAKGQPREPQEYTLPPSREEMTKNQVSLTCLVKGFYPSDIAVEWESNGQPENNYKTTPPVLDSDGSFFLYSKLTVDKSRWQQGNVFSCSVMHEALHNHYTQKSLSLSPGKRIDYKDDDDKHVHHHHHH

B1: C8-6 (antibody, human IgG2, kappa, V domains shown)
VH: QVQLVQSGAEVKKPGASVKVSCKASGYTFTDYYMHWVRQAPGQGLEWMGRVNPNRGGTTYNQKFEGRVTMTTDTSTSTAYMELRSLRSDDTAVYYCARTNWLDYWGQGTTVTVSS
VL: DIQMTQSPSSLSASVGDRVTITCSVSSSVSSIYLHWYQQKPGKAPKLLIYSTSNLASGVPSRFSGSGSGTDFTLTISSLQPEDFATYYCIQYSGYPLTFGGGTKVEIKR
notes: Called IgG4, kappa; also called Mab C8-6
B1 was tested, and the “Average A450 nm” value (RON-ECD-Fc [1]) was 0.124 A450 nm, the “Average A450 nm” value (Human c-Met-Flis-Fc ECD [2]) was 4 A450 nm and the “Average A450 nm” value (PlexinA2-ECD-Fc) was 0.171 A450 nm. The “Average A450 nm” value (RON-ECD-Fc [3]) was 0.17 A450 nm, the “Average A450 nm” value (Human c-Met-Flis-Fc ECD [4]) was 4 A450 nm and the “Average A450 nm” value (RON-ECD-Fc [5]) was 0.106 A450 nm. For the same binder, the “Average A450 nm” value (Human c-Met-Flis-Fc ECD [6]) was 0.326 A450 nm.
